Starred links: 1 amine or outer side, 2 acyl side, 3 side chain; linkers in the order of their positions; H or OH if unused. Positions of bridges follow the written chain, without caps; N, C: chain ends. Non-standard residues stand in square brackets, D forms with d. Residues, ends and D or L forms follow the SMILES beside them. *: point of attachment. X9 = CCOCc1nc2c(NC(=O)[C@H](CCCCNC(=O)OCc3ccc(NC(=O)[C@H](CCCNC(N)=O)NC(=O)[C@@H](NC(=O)Cn4cc(CCC(=O)*)nn4)C(C)C)cc3)NC(C)=O)nc3ccccc3c2n1CC(C)(C)O; X14 = CCCOc1nc(NC(=O)CCCNC(=O)OCc2ccc(NC(=O)[C@H](CCCNC(N)=O)NC(=O)[C@@H](NC(=O)Cn3cc(CCC(=O)*)nn3)C(C)C)cc2)c2[nH]c(=O)n(Cc3ccc(OCCN(C)C)nc3)c2n1; X13 = CCOCc1nc2c(NC(=O)N(C)CCN(C)C(=O)OCc3ccc(NC(=O)[C@H](CCCNC(N)=O)NC(=O)[C@@H](NC(=O)Cn4cc(CCC(=O)*)nn4)C(C)C)cc3)nc3ccccc3c2n1CC(C)(C)O; X16 = CCCOc1nc(NC(=O)CCCSSC(C)CCC(=O)*)c2[nH]c(=O)n(Cc3ccc(OCCN(C)C)nc3)c2n1; X15 = CCOCc1nc2c(NC(=O)CCCSSC(C)CCC(=O)*)nc3ccccc3c2n1CC(C)(C)O; Resiquimod = CCOCc1nc2c(N*)nc3ccccc3c2n1CC(C)(C)O; 1Nal = N[C@@H](Cc1cccc2ccccc12)C(=O)O; TBMB = c1c(C[*:1])cc(C[*:3])cc1C[*:2]; Glutaryl = O=C(CCCC(=O)[*:2])[*:1]; Tle = CC(C)(C)[C@H](N)C(=O)O; βAla = NCCC(=O)O; Sar = CNCC(=O)O
Legend:
[1] = Blood stability, mouse; type: in vitro ADME, CD-1 mouse; details: male
Experimental: CD-1 mouse blood (n≥2, male, fasted overnight) is collected from animals housed at an internal facility. (EDTA-K2 is used as anticoagulant)
The test compounds and positive control stock solutions are prepared to 10 mM in DMSO or ultrapure water. Control compounds bisacodyl, enalapril and propantheline known to be metabolised by blood are also incubated alongside each batch of test compounds I-7, I-22, I-24, I-25, I-27, and I-29 to I-33. The dosing solutions of test compounds and controls are prepared by diluting the stock solution with 45% MeOH/H2O to achieve 100 uM. Test compound solutions (final incubation concentration=2 μM) are incubated with blood (final DMSO concentration≤1%) at six different time points (0, 1, 2, 4, 6 and 24 hours) in duplicate (n=2). The reaction is terminated by adding 100 uL ultra-pure water, mixing well, then adding 800 uL of 100% methanol containing 200 ng/mL tolbutamide and 200 ng/mL labetalol as internal standards. Samples are then vortexed and centrifuged at 3200×g for 20 minutes. Following centrifugation, the concentration of test compound in the supernatant is determined semi-quantitatively by LC-MS/MS. The percentage of test compound remaining at the individual time points relative to the 0 hour sample is then reported. The percent remaining of test compound after incubation in blood is calculated using following equation: Percent Remaining=100×(PAR at appointed incubation time/PAR at T0 time) where PAR is the peak area ratio of analyte versus internal standard (IS).

[2] = Plasma stability, rat; type: in vitro ADME; details: rat, plasma, pH 7.4
Experimental: (§1) The pooled frozen mouse, rat, dog, monkey or human plasma is thawed in a water bath at 37° C. prior to experiment. Plasma is centrifuged at 4000 rpm for 5 min and the clots are removed if any. […] For positive controls, 100 μM intermediate solution is prepared by diluting 20 μL of the stock solution with 180 μL 45% MeOH/H2O. […] For compounds I-7 to […]-17, […]-22, and […]-33, at each time point (0, 1, 2, 4, 6 and 24 hr), reactions were stopped by removing the plates from water bath and 200 μL 20 mM NH4OAC mix well first and then adding 800 μL of ice-cold stop solution (200 ng/mL Labetalol, 200 ng/mL Tolbutamide, 500 ng/mL N6-Ben and 40 mM DBAA in 100% Methanol). […] Sample plates were vortexed immediately on a plate shaker at 800 rpm for 10 min and then centrifuged at 4,000 rpm for 10 min. An aliquot of supernatant (200 μL) is transferred from each well before submitting to LC-MS/MS analysis. The percentage of test compound remaining at the individual time points relative to the 0 hour sample is calculated using following equation: Percent Remaining=100×(PAR at appointed incubation time/PAR at T0 time) where PAR is the peak area ratio of analyte versus internal standard (IS).

[3] = Plasma stability, mouse; type: in vitro ADME; details: mouse, plasma, pH 7.4
Experimental: as §1

[4] = Plasma stability, human; type: in vitro ADME; details: human, plasma, pH 7.4
Experimental: as §1

[5] = Plasma stability, cyno; type: in vitro ADME; details: cynomolgus monkey, plasma, pH 7.4
Experimental: as §1

Row | Compound | half-life at 2 μM ([1]; CD-1, mouse) [h] | half-life at 2 μM [2] [h] | half-life at 2 μM [3] [h] | half-life at 2 μM [4] [h] | half-life at 2 μM [5] [h] | half-life at 2 μM ([1]; CD-1 mouse blood, 2 μM, read-out: T1/2 (mouse)) [h]
1 | CCOCc1nc2c(NC(=O)N(C)CCN(C)C(=O)OCc3ccc(NC(=O)[C@H](CCCNC(N)=O)NC(=O)[C@@H](NC(=O)Cn4cc(CCC(=O)NCCC(=O)N(C)CC(=O)N(C)CC(=O)N(C)CC(=O)N(C)CC(=O)N(C)CC(=O)N(C)CC(=O)N(C)CC(=O)N(C)CC(=O)N(C)CC(=O)N(C)CC(=O)N[C@@H](C)C(=O)N[C@H]5CSCc6cc7cc(c6)CSC[C@H](NC(=O)[C@@H](C)NC(=O)[C@H](Cc6cccc8ccccc68)NC(=O)[C@H](CCC(=O)O)NC(=O)[C@H](CC(N)=O)NC(=O)[C@@H](C)NC5=O)C(=O)N[C@@H](CCC(=O)O)C(=O)N[C@@H](CC(=O)O)C(=O)N[C@@H](Cc5ccccc5)C(=O)N[C@@H](Cc5ccc(O)cc5)C(=O)N[C@@H](CC(=O)O)C(=O)N[C@@H](C(C)(C)C)C(=O)N[C@H](C(N)=O)CSC7)nn4)C(C)C)cc3)nc3ccccc3c2n1CC(C)(C)O [1-31] ({X13-βAla}-[Sar][Sar][Sar][Sar][Sar][Sar][Sar][Sar][Sar][Sar]AC[dA]NE[1Nal][dA]CEDFYD[Tle]C-NH2; linker 12-18-25 via TBMB) | 6 to 24 |  |  |  |  | 
2 | CCCOc1nc(NC(=O)CCCSSC(C)CCC(=O)NCCC(=O)N(C)CC(=O)N(C)CC(=O)N(C)CC(=O)N(C)CC(=O)N(C)CC(=O)N(C)CC(=O)N(C)CC(=O)N(C)CC(=O)N(C)CC(=O)N(C)CC(=O)N[C@@H](C)C(=O)N[C@H]2CSCc3cc4cc(c3)CSC[C@H](NC(=O)[C@@H](C)NC(=O)[C@H](Cc3cccc5ccccc35)NC(=O)[C@H](CCC(=O)O)NC(=O)[C@H](CC(N)=O)NC(=O)[C@@H](C)NC2=O)C(=O)N[C@@H](CCC(=O)O)C(=O)N[C@@H](CC(=O)O)C(=O)N[C@@H](Cc2ccccc2)C(=O)N[C@@H](Cc2ccc(O)cc2)C(=O)N[C@@H](CC(=O)O)C(=O)N[C@@H](C(C)(C)C)C(=O)N[C@H](C(N)=O)CSC4)c2[nH]c(=O)n(Cc3ccc(OCCN(C)C)nc3)c2n1 (stereo partly drawn) [I-23] ({X16-βAla}-[Sar][Sar][Sar][Sar][Sar][Sar][Sar][Sar][Sar][Sar]AC[dA]NE[1Nal][dA]CEDFYD[Tle]C-NH2; linker 12-18-25 via TBMB) |  | < 2 | < 2 | < 2 | < 2 | 
3 | CCOCc1nc2c(NC(=O)[C@H](CCCCNC(=O)OCc3ccc(NC(=O)[C@H](CCCNC(N)=O)NC(=O)[C@@H](NC(=O)Cn4cc(CCC(=O)NCCC(=O)N(C)CC(=O)N(C)CC(=O)N(C)CC(=O)N(C)CC(=O)N(C)CC(=O)N(C)CC(=O)N(C)CC(=O)N(C)CC(=O)N(C)CC(=O)N(C)CC(=O)N[C@@H](C)C(=O)N[C@H]5CSCc6cc7cc(c6)CSC[C@H](NC(=O)[C@@H](C)NC(=O)[C@H](Cc6cccc8ccccc68)NC(=O)[C@H](CCC(=O)O)NC(=O)[C@H](CC(N)=O)NC(=O)[C@@H](C)NC5=O)C(=O)N[C@@H](CCC(=O)O)C(=O)N[C@@H](CC(=O)O)C(=O)N[C@@H](Cc5ccccc5)C(=O)N[C@@H](Cc5ccc(O)cc5)C(=O)N[C@@H](CC(=O)O)C(=O)N[C@@H](C(C)(C)C)C(=O)N[C@H](C(N)=O)CSC7)nn4)C(C)C)cc3)NC(C)=O)nc3ccccc3c2n1CC(C)(C)O [I-24] ({X9-βAla}-[Sar][Sar][Sar][Sar][Sar][Sar][Sar][Sar][Sar][Sar]AC[dA]NE[1Nal][dA]CEDFYD[Tle]C-NH2; linker 12-18-25 via TBMB) | 6 to 24 | 6 to 24 | 6 to 24 | > 24 | > 24 | 
4 | CCOCc1nc2c(NC(=O)CCCC(=O)NCCC(=O)N(C)CC(=O)N(C)CC(=O)N(C)CC(=O)N(C)CC(=O)N(C)CC(=O)N(C)CC(=O)N(C)CC(=O)N(C)CC(=O)N(C)CC(=O)N(C)CC(=O)N[C@@H](C)C(=O)N[C@H]3CSCc4cc5cc(c4)CSC[C@H](NC(=O)[C@@H](C)NC(=O)[C@H](Cc4cccc6ccccc46)NC(=O)[C@H](CCC(=O)O)NC(=O)[C@H](CC(N)=O)NC(=O)[C@@H](C)NC3=O)C(=O)N[C@@H](CCC(=O)O)C(=O)N[C@@H](CC(=O)O)C(=O)N[C@@H](Cc3ccccc3)C(=O)N[C@@H](Cc3ccc(O)cc3)C(=O)N[C@@H](CC(=O)O)C(=O)N[C@@H](C(C)(C)C)C(=O)N[C@H](C(N)=O)CSC5)nc3ccccc3c2n1CC(C)(C)O [I-25] ({Resiquimod-Glutaryl-βAla}-[Sar][Sar][Sar][Sar][Sar][Sar][Sar][Sar][Sar][Sar]AC[dA]NE[1Nal][dA]CEDFYD[Tle]C-NH2; linker 12-18-25 via TBMB) |  | > 24 | > 24 | > 24 | > 24 | > 24
5 | CCCOc1nc(NC(=O)CCCNC(=O)OCc2ccc(NC(=O)[C@H](CCCNC(N)=O)NC(=O)[C@@H](NC(=O)Cn3cc(CCC(=O)NCCC(=O)N(C)CC(=O)N(C)CC(=O)N(C)CC(=O)N(C)CC(=O)N(C)CC(=O)N(C)CC(=O)N(C)CC(=O)N(C)CC(=O)N(C)CC(=O)N(C)CC(=O)N[C@@H](C)C(=O)N[C@H]4CSCc5cc6cc(c5)CSC[C@H](NC(=O)[C@@H](C)NC(=O)[C@H](Cc5cccc7ccccc57)NC(=O)[C@H](CCC(=O)O)NC(=O)[C@H](CC(N)=O)NC(=O)[C@@H](C)NC4=O)C(=O)N[C@@H](CCC(=O)O)C(=O)N[C@@H](CC(=O)O)C(=O)N[C@@H](Cc4ccccc4)C(=O)N[C@@H](Cc4ccc(O)cc4)C(=O)N[C@@H](CC(=O)O)C(=O)N[C@@H](C(C)(C)C)C(=O)N[C@H](C(N)=O)CSC6)nn3)C(C)C)cc2)c2[nH]c(=O)n(Cc3ccc(OCCN(C)C)nc3)c2n1 [I-26] ({X14-βAla}-[Sar][Sar][Sar][Sar][Sar][Sar][Sar][Sar][Sar][Sar]AC[dA]NE[1Nal][dA]CEDFYD[Tle]C-NH2; linker 12-18-25 via TBMB) |  | < 2 | < 2 | < 2 | < 2 | 
6 | CCOCc1nc2c(NC(=O)CCCSSC(C)CCC(=O)NCCC(=O)N(C)CC(=O)N(C)CC(=O)N(C)CC(=O)N(C)CC(=O)N(C)CC(=O)N(C)CC(=O)N(C)CC(=O)N(C)CC(=O)N(C)CC(=O)N(C)CC(=O)N[C@@H](C)C(=O)N[C@H]3CSCc4cc5cc(c4)CSC[C@H](NC(=O)[C@@H](C)NC(=O)[C@H](Cc4cccc6ccccc46)NC(=O)[C@H](CCC(=O)O)NC(=O)[C@H](CC(N)=O)NC(=O)[C@@H](C)NC3=O)C(=O)N[C@@H](CCC(=O)O)C(=O)N[C@@H](CC(=O)O)C(=O)N[C@@H](Cc3ccccc3)C(=O)N[C@@H](Cc3ccc(O)cc3)C(=O)N[C@@H](CC(=O)O)C(=O)N[C@@H](C(C)(C)C)C(=O)N[C@H](C(N)=O)CSC5)nc3ccccc3c2n1CC(C)(C)O (stereo partly drawn) [I-28] ({X15-βAla}-[Sar][Sar][Sar][Sar][Sar][Sar][Sar][Sar][Sar][Sar]AC[dA]NE[1Nal][dA]CEDFYD[Tle]C-NH2; linker 12-18-25 via TBMB) |  | < 2 | < 2 | < 2 | 2 to 6 | 
7 | CCOCc1nc2c(NC(=O)N(C)CCN(C)C(=O)OCc3ccc(NC(=O)[C@H](CCCNC(N)=O)NC(=O)[C@@H](NC(=O)Cn4cc(CCC(=O)NCCC(=O)N(C)CC(=O)N(C)CC(=O)N(C)CC(=O)N(C)CC(=O)N(C)CC(=O)N(C)CC(=O)N(C)CC(=O)N(C)CC(=O)N(C)CC(=O)N(C)CC(=O)N[C@@H](C)C(=O)N[C@H]5CSCc6cc7cc(c6)CSC[C@H](NC(=O)[C@@H](C)NC(=O)[C@H](Cc6cccc8ccccc68)NC(=O)[C@H](CCC(=O)O)NC(=O)[C@H](CC(N)=O)NC(=O)[C@@H](C)NC5=O)C(=O)N[C@@H](CCC(=O)O)C(=O)N[C@@H](CC(=O)O)C(=O)N[C@@H](Cc5ccccc5)C(=O)N[C@@H](Cc5ccc(O)cc5)C(=O)N[C@@H](CC(=O)O)C(=O)N[C@@H](C(C)(C)C)C(=O)N[C@H](C(N)=O)CSC7)nn4)C(C)C)cc3)nc3ccccc3c2n1CC(C)(C)O [I-31] ({X13-βAla}-[Sar][Sar][Sar][Sar][Sar][Sar][Sar][Sar][Sar][Sar]AC[dA]NE[1Nal][dA]CEDFYD[Tle]C-NH2; linker 12-18-25 via TBMB) |  | > 24 | > 24 | > 24 | > 24 | 
